Substitutions are numbered along the chain they refer to. Numbers in names are those of the source. Read-outs that look alike come from different tables or passages of the source.

Assay type in all cases: cell-based
Test [1] deals with Jurkat cells. Put plainly: Tacrolimus dose response of FKBP13-AcGFP-mCherry constructs stably transduced into Jurkat cells, GFP MFI by flow cytometry. Further details: Basal: unit not given here. As to conditions: for EC90 / Tacrolimus FC: Table 14; for Fold Change: Jurkat cells stably transduced, Table 7; for Tacrolimus FC: fold change; for basal AcGFP expression: absence of tacrolimus. The essentials: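 GFP geometric MFI was read by flow cytometry in mCherry+ cells and curve-fitted against tacrolimus dose. Cells were Jurkat E6-1, lentivirus-transduced with FKBP13-AcGFP-mCherry fusion constructs until 10-25% mCherry-positive on day 5 post-transduction.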
(In flow cytometry, cells or beads pass a laser one at a time.)

Test [2] has as its system Jurkat cells. Put plainly: Sirolimus (rapamycin) dose response of FKBP13 constructs stably transduced into Jurkat cells, flow cytometry. As to conditions: for Fold Change: rapamycin (sirolimus), Jurkat cells stably transduced, Table 8; for EC90 / Rapamycin FC: rapamycin, Table 14; for Rapamycin FC: fold change; for difference between rapamycin and tacrolimus: ratio of EC50 and fold change, Table 9; for EC50 (tacrolimus)/ EC50 (rapamycin): ratio of Table 7 and Table 8 EC50 values; for EC50 (tacrolimus)/ EC50 (rapamycin) / Fold change (tacrolimus)/ Fold change (rapamycin): Jurkat cells; for Fold change (tacrolimus)/ Fold change (rapamycin): ratio of Table 7 and Table 8 fold changes. Here is the method: Normalized EC50 values were calculated from the mCherry normalized GFP MFI values, which accounted for any differences in mCherry intensity between samples.

Test [3] can be described thus: Example 4: dose response of FKBP constructs 160-255, Ec50, Ec90 and fold change (raw and normalized to mCherry). As to conditions: for FC (fold change): fold change during initial analysis. On the procedure: Additional experiments were performed for constructs FKBP-160-292.
The mark [4] stands for this setting: read-out: Tacrolimus EC90 (Norm), tacrolimus, normalized.
Where [5] appears, read: read-out: Tacrolimus EC90, tacrolimus.
The mark [6] stands for this setting: normalized, read-out: Rapamycin EC90 (Norm).
The mark [7] stands for this setting: FKBP constructs 160-255, not normalized, read-out: EC90.
[8] abbreviates: normalized to mCherry, read-out: EC90 (Norm).

B1: FKBP-153: FKBP13 DRD Q72R, S79W, Q84E, A117W, M54A; SEQ ID NO: 103 (protein)
chain: HCPIKSRKGDVLHAHYTGKLEDGTEFDSSLPRNQPFVFWLGTGEVIKGWDQGLLGMCEGEKRKLVIPSELGYGERGWPPKIPGGATLVFEVELLKIER
modifications: Description of sequence: FKBP13-AcGFP-mCherry Fusion; Construct Name: FKBP-153; FKBP13 DRD in Construct : FKBP13 (mutated to match FKBP12 active site Q72RS79W Q84E A117W) (DRD M54A)
As for B1, the EC90 in the test with Jurkat cells [1] (setting [4]) came out at 383 nM. Also, the EC90 with Jurkat cells [1] (setting [5]) was 341 nM. Besides, in the test on Jurkat cells [1] (tacrolimus), the “Fold Change” value was found to be 30.07 and the “Tacrolimus FC” value is 39.7. Besides, in the test with Jurkat cells [2], the “Fold Change” value was found to be 4.8; the “Rapamycin FC” value amounted to 6.1; the “difference between rapamycin and tacrolimus” value is “largest difference between rapamycin and tacrolimus”; the “EC50 (tacrolimus)/ EC50 (rapamycin)” value was 0.20. Besides, in the test on Jurkat cells [2], the “Fold change (tacrolimus)/ Fold change (rapamycin)” value (shortened to “Fold change … (rapamycin)”) came out at 6.26. Also, the EC90 with Jurkat cells [2] (read-out: Rapamycin EC90) is 1520 nM. In addition, in the test on Jurkat cells [2] (setting [6]), the EC90 worked out at 1540 nM.

B2: FKBP-251: combinatorial FKBP13 mutant construct of Table 10 (protein)
chain: B1 chain with A14M, W39S, V45R, E90F
modifications: Description of sequence: Construct Name: FKBP-251; Mutation(s): Q72R Q84E A117W V85R DRD E130F
Consider B2, for which the Basal with Jurkat cells [1] (FIG. 40) was 76; with Jurkat cells [1] (FIG. 46, BR1 (Biorep 1)), 64; with Jurkat cells [1] (FIG. 46, BR2 (Biorep 2)), 46.1. Besides, the FC is reported as 100 with Jurkat cells [1] (FIG. 40); 97.61 with Jurkat cells [1] (FIG. 46, BR1 (Biorep 1)); 76.79 with Jurkat cells [1] (FIG. 46, BR2 (Biorep 2)); 92.03 in the test with Jurkat cells [1] (tacrolimus, FIG. 35); 92.03 with Jurkat cells [1] (tacrolimus, FIG. 36); 92.03 in the test on Jurkat cells [1] (tacrolimus, FIG. 37). The FC in the test on Jurkat cells [1] (tacrolimus, FIG. 38) is listed as 92.03. Further, the Peak was 7406 in the test on Jurkat cells [1] (FIG. 40); 5078 in the test with Jurkat cells [1] (tacrolimus, FIG. 35); 5078 with Jurkat cells [1] (tacrolimus, FIG. 36); 5078 with Jurkat cells [1] (tacrolimus, FIG. 37); 5078 with Jurkat cells [1] (tacrolimus, FIG. 38). Besides, the “At 10 uM” value in the test on Jurkat cells [1] (FIG. 46, BR1 (Biorep 1)) was determined as 6247; with Jurkat cells [1] (FIG. 46, BR2 (Biorep 2)), 3540. For the same molecule, the “basal AcGFP expression” value in the test on Jurkat cells [1] is on record as “lowest basal expression”. Moreover, the EC90 in test [3] (setting [7]) came out at 104 nM; in test [3] (setting [8]) it was 113 nM. Moreover, the “FC (fold change)” value in test [3] is reported as 97.5.

B3: FKBP-155: FKBP13 DRD Q72R, S79W, Q84R, A117W, M54A; SEQ ID NO: 105 (protein)
chain: B1 chain with E44R
modifications: Description of sequence: FKBP13-AcGFP-mCherry Fusion; Construct Name: FKBP-155; FKBP13 DRD in Construct : FKBP13 (mutated to match FKBP12 active site Q72R S79W Q84R A117W) (DRD M54A)
As for B3, in the test with Jurkat cells [1] (setting [4]), the EC90 was determined as 947 nM. Besides, in the test with Jurkat cells [1] (setting [5]), the EC90 turned out to be 808 nM. In the test with Jurkat cells [1] (tacrolimus), the “Fold Change” value amounted to 41.68 and the “Tacrolimus FC” value turned out to be 61.3. In the test with Jurkat cells [2], the “Fold Change” value is listed as 5.6; the “Rapamycin FC” value was 7.5; the “difference between rapamycin and tacrolimus” value was “largest difference between rapamycin and tacrolimus”; the “EC50 (tacrolimus)/ EC50 (rapamycin)” value stood at 0.72. For the same molecule, in the test on Jurkat cells [2], the “Fold change … (rapamycin)” value was 7.44. Also, in the test on Jurkat cells [2] (read-out: Rapamycin EC90), the EC90 was determined as 1140 nM. Besides, the EC90 in the test with Jurkat cells [2] (setting [6]) came out at 1180 nM.

B4: FKBP-215: combinatorial FKBP13 mutant construct of Table 10, carries M54A (protein)
chain: B1 chain with P3R, W39S, E44G, V45R, K95Y
modifications: Description of sequence: Construct Name: FKBP-215; Mutation(s): Q72R Q84G A117W V85R DRD P43R M54A K135Y
Turning to B4, the Basal in the test on Jurkat cells [1] (FIG. 48, BR1 (Biorep 1)) turned out to be 65; with Jurkat cells [1] (FIG. 48, BR2 (Biorep 2)), 59.4. The FC in the test on Jurkat cells [1] (FIG. 48, BR1 (Biorep 1)) was 51.05; in the test on Jurkat cells [1] (FIG. 48, BR2 (Biorep 2)), 53.30. Further, the “At 10 uM” value stood at 3318 in the test with Jurkat cells [1] (FIG. 48, BR1 (Biorep 1)) and 3166 in the test with Jurkat cells [1] (FIG. 48, BR2 (Biorep 2)). Further, the “basal AcGFP expression” value in the test with Jurkat cells [1] is “lowest basal AcGFP expression”. Further, the results for the EC90 in test [3] (setting [7]) and in test [3] (setting [8]) were 388 nM and 390 nM, respectively. In test [3], the “FC (fold change)” value is on record as 51.0.

B5: FKBP-228: combinatorial FKBP13 mutant construct of Table 10 (protein)
chain: B1 chain with A14M, W39S, V45R, E97R
modifications: Description of sequence: Construct Name: FKBP-228; Mutation(s): Q72R Q84E A117W V85R DRD E137R
B5: the Basal in the test on Jurkat cells [1] (FIG. 41) is 112; in the test with Jurkat cells [1] (FIG. 42, BR1 (Biorep 1)), 103; in the test on Jurkat cells [1] (FIG. 42, BR2 (Biorep 2)) it was 99.6. Besides, the FC with Jurkat cells [1] (FIG. 41) turned out to be 85; in the test on Jurkat cells [1] (FIG. 42, BR1 (Biorep 1)) it was 55.15; in the test with Jurkat cells [1] (FIG. 42, BR2 (Biorep 2)), 60.71. The molecule also gave a Peak in the test with Jurkat cells [1] (FIG. 41) of 8896. Further, the “At 10 uM” value was 5680 with Jurkat cells [1] (FIG. 42, BR1 (Biorep 1)) and 6047 in the test on Jurkat cells [1] (FIG. 42, BR2 (Biorep 2)). For the same molecule, the “basal AcGFP expression” value in the test on Jurkat cells [1] is recorded as “lowest basal expression”. In addition, the values for the EC90 in test [3] (setting [7]) and in test [3] (setting [8]) were 116 nM and 124 nM, respectively. Moreover, the “FC (fold change)” value in test [3] turned out to be 55.1.

B6: FKBP-197: FKBP13 DRD-AcGFP construct of Table 10 (protein)
chain: B1 chain with A14M, W39S, V45R, E90R
modifications: Description of sequence: Construct Name: FKBP-197; Mutation(s): Q72R Q84E A117W V85R DRD E130R
As to B6, in the test with Jurkat cells [1] (FIG. 46, BR1 (Biorep 1)), the Basal came out at 70.7, the FC turned out to be 101.12 and the “At 10 uM” value was 7149. In addition, in the test with Jurkat cells [1] (FIG. 46, BR2 (Biorep 2)), the Basal was 55.2, the FC came out at 72.21 and the “At 10 uM” value turned out to be 3986. The EC90 in test [3] (setting [7]) came out at 1090 nM. The “FC (fold change)” value in test [3] is recorded as 101.1. The EC90 in test [3] (setting [8]) is 1190 nM.

B7: FKBP-195: combinatorial FKBP13 mutant construct of Table 10, carries K135Y (protein)
chain: B1 chain with A14M, W39S, V45R, K95Y
modifications: Description of sequence: Construct Name: FKBP-195; Mutation(s): Q72R Q84E A117W V85R DRD K135Y
Consider B7, for which the Basal is 68.4 in the test on Jurkat cells [1] (FIG. 39) and 75.5 with Jurkat cells [1] (FIG. 50). The FC in the test on Jurkat cells [1] (FIG. 39) is reported as 90; in the test on Jurkat cells [1] (FIG. 50), 61.07; with Jurkat cells [1] (tacrolimus, FIG. 35), 89.61; in the test with Jurkat cells [1] (tacrolimus, FIG. 36) it was 89.61; in the test with Jurkat cells [1] (tacrolimus, FIG. 37), 89.61; in the test on Jurkat cells [1] (tacrolimus, FIG. 38), 89.61. In addition, the FC in the test with Jurkat cells [1] (tacrolimus, FIGS. 29 and 30) stood at 66; with Jurkat cells [1] (tacrolimus, FIGS. 31 and 32), 66; in the test with Jurkat cells [1] (tacrolimus, FIGS. 33 and 34), 66. The Peak was 5808 in the test on Jurkat cells [1] (FIG. 39); 4362 with Jurkat cells [1] (tacrolimus, FIG. 35); 4362 in the test on Jurkat cells [1] (tacrolimus, FIG. 36); 4362 in the test with Jurkat cells [1] (tacrolimus, FIG. 37); 4362 with Jurkat cells [1] (tacrolimus, FIG. 38). Moreover, the “At 10 uM” value in the test on Jurkat cells [1] (FIG. 50) came out at 4611. Besides, the “basal AcGFP expression” value in the test with Jurkat cells [1] was “lowest basal expression”. Also, the EC90 in test [3] (setting [7]) was found to be 165 nM; in test [3] (setting [8]), 140 nM. Moreover, in test [3], the “FC (fold change)” value was determined as 50.1.

B8: FKBP-157: FKBP13 DRD Q72R, T82W, Q84E, A117W, M54A; SEQ ID NO: 107 (protein)
chain: B1 chain with W39S, T42W, E44R
modifications: Description of sequence: FKBP13-AcGFP-mCherry Fusion; Construct Name: FKBP-157; FKBP13 DRD in Construct : FKBP13 (mutated to match FKBP12 active site Q72R T82W Q84E A117W) (DRD M54A)
Consider B8, for which the EC90 in the test with Jurkat cells [1] (setting [4]) came to 1320 nM. Also, the EC90 in the test with Jurkat cells [1] (setting [5]) stood at 1140 nM. Besides, in the test with Jurkat cells [1] (tacrolimus), the “Fold Change” value turned out to be 51.33 and the “Tacrolimus FC” value is given as 63.5. Besides, in the test on Jurkat cells [2], the “Fold Change” value is 7.92; the “Rapamycin FC” value is reported as 11.2; the “difference between rapamycin and tacrolimus” value is “largest difference between rapamycin and tacrolimus”; the “EC50 (tacrolimus)/ EC50 (rapamycin)” value was 0.97. Also, in the test with Jurkat cells [2], the “Fold change … (rapamycin)” value is 6.48. In addition, the EC90 in the test on Jurkat cells [2] (read-out: Rapamycin EC90) is 1010 nM. Besides, in the test on Jurkat cells [2] (setting [6]), the EC90 stood at 1080 nM.

Usually EC90 stands for the concentration at which the effect reaches the 90% level.

Source of the values: patent US20250186614A1, “COMPACT DRUG RESPONSIVE DOMAINS FOR REGULATION OF FUNCTION/ABUNDANCE AND DELIVERY OF POLYPEPTIDE PAYLOADS” (OBSIDIAN THERAPEUTICS, INC., priority 2022, published 2025).
